Reference: PMC3378870 (Nucleic Acids Research, 2012)

B1: VapC toxin of Salmonella enterica serovar Typhimurium LT2 (enzyme)
chain: MLKFMLDTNTCIFTIKNKPEHIRERFNLNTSRMCISSITLMELIYGAEKSLAPERNLAVVEGFISRLEVLDYDTQAAIHTGQIRAELARKGTPVGPYDQMIAGHAGSRGLVVVTNNLREFERIPGIRIEDWC

Key:
[1] = target: the molecule itself
VapC A76S variant = target: T1, VapC A76S variant (Salmonella enterica serovar Typhimurium …, UniProt Q8ZM86 1-132, A76S); assay: native gel or EMSA
T1 sequence: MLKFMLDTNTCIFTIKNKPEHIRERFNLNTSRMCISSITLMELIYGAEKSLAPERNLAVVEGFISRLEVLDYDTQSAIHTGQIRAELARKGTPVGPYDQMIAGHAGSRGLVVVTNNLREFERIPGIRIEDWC

[2] = target: B1; assay: native gel or EMSA
VapC Y72A variant = target: T2, VapC Y72A variant (Salmonella enterica serovar Typhimurium …, UniProt Q8ZM86 1-132, Y72A); assay: native gel or EMSA
T2 sequence: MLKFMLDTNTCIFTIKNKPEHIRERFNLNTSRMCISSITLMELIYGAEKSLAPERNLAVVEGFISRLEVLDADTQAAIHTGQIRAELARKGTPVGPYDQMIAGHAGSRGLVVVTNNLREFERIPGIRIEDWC

VapC I44A variant = target: T3, VapC I44A variant (Salmonella enterica serovar Typhimurium …, UniProt Q8ZM86 1-132, I44A); assay: native gel or EMSA
T3 sequence: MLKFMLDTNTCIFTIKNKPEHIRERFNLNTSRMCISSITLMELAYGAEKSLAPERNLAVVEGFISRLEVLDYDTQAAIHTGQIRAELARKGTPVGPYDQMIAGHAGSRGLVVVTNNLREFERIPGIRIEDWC

VapC L43A variant = target: T4, VapC L43A variant (Salmonella enterica serovar Typhimurium …, UniProt Q8ZM86 1-132, L43A); assay: native gel or EMSA
T4 sequence: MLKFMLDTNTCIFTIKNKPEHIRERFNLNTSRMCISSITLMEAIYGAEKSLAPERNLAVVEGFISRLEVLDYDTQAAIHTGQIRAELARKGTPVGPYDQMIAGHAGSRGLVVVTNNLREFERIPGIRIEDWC

VapB;VapC = target: T5, VapB;VapC (Salmonella enterica serovar Typhimurium …, UniProt Q7CPV2;Q8ZM86 1-75;1-132, |); assay: EMSA
T5 sequence 1: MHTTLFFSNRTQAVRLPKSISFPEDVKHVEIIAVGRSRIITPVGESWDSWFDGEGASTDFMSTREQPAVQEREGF
T5 sequence 2: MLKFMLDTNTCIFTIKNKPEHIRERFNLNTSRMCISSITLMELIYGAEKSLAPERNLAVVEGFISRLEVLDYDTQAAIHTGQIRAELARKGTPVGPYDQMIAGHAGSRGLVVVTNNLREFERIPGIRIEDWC

With B1 the “stoichiometry N” value [1] was 2.

B2: VapB antitoxin of Salmonella enterica serovar Typhimurium LT2 (natural protein, UniProt Q7CPV2 1-75, looked up)
chain: MHTTLFFSNRTQAVRLPKSISFPEDVKHVEIIAVGRSRIITPVGESWDSWFDGEGASTDFMSTREQPAVQEREGF
B2: binds (VapC A76S variant); binds [2]; binds (VapC Y72A variant). B2: binds (VapC I44A variant); binds (VapC L43A variant).

B3: vapO1, 36 bp (dsDNA)
DNA 1: CTCATAATGGATATACGCGTTGTATATCCAGAAAGG
DNA 2: CCTTTCTGGATATACAACGCGTATATCCATTATGAG
B3: binds (VapB;VapC).
